Reference: patent publication US20110123544A1 (published 2011)

T1: recombinant human IL-12 (rhIL-12) (human, UniProt P29459 23-219; P29460 23-328)
T1 chain 1: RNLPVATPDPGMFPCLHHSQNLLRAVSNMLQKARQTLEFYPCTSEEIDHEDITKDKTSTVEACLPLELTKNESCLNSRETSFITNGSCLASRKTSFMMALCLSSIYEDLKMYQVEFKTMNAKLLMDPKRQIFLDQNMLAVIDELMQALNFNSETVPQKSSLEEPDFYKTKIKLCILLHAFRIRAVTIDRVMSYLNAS
T1 chain 2: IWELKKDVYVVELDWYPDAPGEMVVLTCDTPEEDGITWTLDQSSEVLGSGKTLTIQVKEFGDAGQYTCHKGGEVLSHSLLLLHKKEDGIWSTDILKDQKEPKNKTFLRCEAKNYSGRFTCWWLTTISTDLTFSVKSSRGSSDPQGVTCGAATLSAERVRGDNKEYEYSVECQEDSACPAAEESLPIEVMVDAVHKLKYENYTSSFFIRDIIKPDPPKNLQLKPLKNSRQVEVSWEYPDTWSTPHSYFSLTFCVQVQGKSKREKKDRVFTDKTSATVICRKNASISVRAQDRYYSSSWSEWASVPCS


Target: T1, recombinant human IL-12 (rhIL-12)
Assay: BIAcore

koff [s⁻¹] | Binder
0.00058 | SGGRSNIGSDTVK [Y61 L31 D]
0.000384 | SGGRSNIGSETVK [Y61 L31 E]
0.000213 | SGGRSNIGSNYVK [Y61 L32 Y]
0.000357 | SGGRSNIGSYTVK [Y61 L31 Y]
0.000309 | SGGRSNIGSTTVK [Y61 L31 T]
0.00025 | SGGRSNIGPNTVK [Y61 L30 P]
0.00022 | SGGRSNIGDNTVK [Y61 L30 D]
0.000392 | SGGRSNIGSSTVK [Y61 L31 S]
0.000331 | SGGRSNIGSKTVK [Y61 L31 K]
0.000292 | SGGRSNIGSQTVK [Y61 L31 Q]
0.000226 | SGGRSNIGTNTVK [Y61 L30 T]
0.00154 | SGGRSNIGSNIVK [Y61 L32 I]
0.000182 | SGGRSNIGRNTVK [Y61 L30 R]
0.000186 | SGGRSNIGCNTVK [Y61 L30 C]
0.000174 | SGGRSNIGSMTVK [Y61 L31 M]
0.000346 | SGGRSNIGKNTVK [Y61 L30 K]
0.00026 | SGGRSNIGSNHVK [Y61 L32 H]
0.00164 | SGGRSNIGSNVVK [Y61 L32 V]
0.000252 | SGGRSNIGSNDVK [Y61 L32 D]
0.0069 | SGGRSNIGSNRVK [Y61 L32 R]
0.00197 | SGGRSNIGSNNVK [Y61 L32 N]

Target: T1, recombinant human IL-12 (rhIL-12)
Assay: BIAcore
Remark: another data set of the same source

koff [s⁻¹] | Binder
0.000286 | SNDQRPS [Y61 L50 S]
0.000372 | ANDQRPS [Y61 L50 A]
0.000382 | WNDQRPS [Y61 L50 W]
0.000614 | GNDRRPS [Y61 L53 R]
0.000348 | DNDQRPS [Y61 L50 D]
0.000272 | TNDQRPS [Y61 L50 T]
0.000761 | HNDQRPS [Y61 L50 H]
0.000444 | RNDQRPS [Y61 L50 R]
0.000953 | MNDQRPS [Y61 L50 M]
0.00243 | KNDQRPS [Y61 L50 K]
